# Patent US20130108636A1 (US Dept. of Health and Human Services, published 2013)
# Target: T1, gp120Bal-CD4
# T1 construct: also called 120Bal-CD4 complex
# Experiment: ELISA, OD 450 nm
row,Binder,EC50 (read off the curve) [nM]
1,"m36.4 (VHH, eAd, mutant of m36; also called m36.4 eAd) VHH: QVQLVQSGGGLVQPGGSLRLSCAASAFDFSDYEMSWVREAPGKGLEWIGEINDSGNTIYNPSLKSRVTISRDNSKNTLYLQMNTLRAEDTAIYYCAIYGGNSGGEYWGQGTLVTVSS",~1
2,"m36.5 (VHH, eAd, mutant of m36 selected from a phage library) VHH: QVQLVQSGGGLVQPGGSLRLSCAASAFDFSDYEMSWVREAPGKGLEWIGEINDSGNTIYNPSLKSRVTISRDNSKNTLYLQMNTLSAEDTAIYYCAIYGGNSGGEYWGQGTLVTVSS",~1
3,"m36.1 (VHH, eAd, mutant of m36 selected from a phage library) VHH: QVQLVQSGGGLVQPGGSLRLSCAASTFDFSDYEMSWVREAPGKGLEWIGEINDSGNTIYNPSLKNRVTISRDNSKNTLYLQMNTLRAEDTAIYYCAIYGGNSGGEYWGQGTLVTVSS",~1
4,"m36.2 (VHH, eAd, mutant of m36 selected from a phage library) VHH: QVQLVQSGGGLIQPGGSLRLSCAASAFDFSDYEMSWVRQDPGKGLEWIGEINDRGNTIYNPSLKSRVTISRDNSKNTLYLQMNTLRAEDTAIYYCAIYGGNSGGEYWGQGTLVTVSS",~2
